The target in the test is recombinant transferrin receptor ectodomain (UniProt Q62351). As to the kind of experiment: competition: 8D3 pre-incubated with 2 µM soluble rTfR ectodomain, then binding to live bEnd.3 cells at 4° C., IRDye detection.
Sequence of recombinant transferrin receptor ectodomain (Q62351 89-763 limits assumed): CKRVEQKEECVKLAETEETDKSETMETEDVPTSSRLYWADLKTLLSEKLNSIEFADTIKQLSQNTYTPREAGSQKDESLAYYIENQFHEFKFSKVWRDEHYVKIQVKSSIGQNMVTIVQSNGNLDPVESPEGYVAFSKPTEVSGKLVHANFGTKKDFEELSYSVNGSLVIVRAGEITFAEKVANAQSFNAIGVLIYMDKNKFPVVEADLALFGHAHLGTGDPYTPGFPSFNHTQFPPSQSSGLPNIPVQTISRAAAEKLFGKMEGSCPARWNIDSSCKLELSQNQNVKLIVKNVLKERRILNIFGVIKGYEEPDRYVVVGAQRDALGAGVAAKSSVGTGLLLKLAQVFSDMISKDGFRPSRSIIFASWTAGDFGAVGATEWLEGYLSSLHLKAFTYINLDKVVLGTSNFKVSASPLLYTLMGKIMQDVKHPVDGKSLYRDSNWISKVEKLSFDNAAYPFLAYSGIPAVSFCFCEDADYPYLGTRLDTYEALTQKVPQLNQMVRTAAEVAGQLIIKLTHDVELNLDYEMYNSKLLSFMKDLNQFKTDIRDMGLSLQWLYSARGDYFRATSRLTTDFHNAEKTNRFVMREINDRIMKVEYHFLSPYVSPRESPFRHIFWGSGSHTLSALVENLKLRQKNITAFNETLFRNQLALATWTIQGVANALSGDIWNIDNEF

B1: anti-transferrin receptor antibody (8D3) (antibody, from another filing, V domains shown)
VH: EVQLVESGGGLVQPGNSLTLSCVASGFTFSNYGMHWIRQAPKKGLEWIAMIYYDSSKMNYADTVKGRFTISRDNSKNTLYLEMNSLRSEDTAMYYCAVPTSHYVVDVWGQGVSVTVSS
VL: DIQMTQSPASLSASLEEIVTITCQASQDIGNWLAWYQQKPGKSPQLLIYGATSLADGVPSRFSGSRSGTQFSLKISRVQVEDIGIYYCLQAYNTPWTFGGGTKLELK
Take B1: the MBEC binding signal with rTfR competition, percent of the non-competition signal was 20%.

Values taken from patent US20220204583A1.
